# From the Human Domainome abundance scans (Beltran et al. 2025)
# ± gives the uncertainty stated by the source.
# Assay: abundance fitness (aPCA) (normalised: wild type 0, dead -1); higher = more abundant; growth selection in yeast, the domain comes from the species named
# Conditions: Homo sapiens
row,Substance,abundance fitness
1,"Gamma-crystallin D L112E, P07320",-0.383 ± 0.045
2,"Gamma-crystallin D G100C, P07320",-0.117 ± 0.096
3,"Gamma-crystallin D G100Y, P07320",-0.839 ± 0.32
4,"Gamma-crystallin D G100T, P07320",-0.889 ± 0.45
5,"Gamma-crystallin D G100L, P07320",-0.266 ± 0.075
6,"Gamma-crystallin D G100I, P07320",-0.826 ± 0.36
7,"Gamma-crystallin D G100K, P07320",-0.325 ± 0.17
8,"Gamma-crystallin D G100V, P07320",-1.13 ± 0.16
9,"Gamma-crystallin D G100F, P07320",-0.779 ± 0.17
10,"Gamma-crystallin D I103Q, P07320",-0.03 ± 0.13
11,"Gamma-crystallin D G100H, P07320",-0.561 ± 0.28
12,"Gamma-crystallin D I103R, P07320",0.055 ± 0.064
13,"Gamma-crystallin D G100E, P07320",-0.069 ± 0.085
14,"Gamma-crystallin D I103E, P07320",0.037 ± 0.13
15,"Gamma-crystallin D G100M, P07320",-0.356 ± 0.14
16,"Gamma-crystallin D I103H, P07320",-0.186 ± 0.088
17,"Gamma-crystallin D G100Q, P07320",-0.565 ± 0.17
18,"Gamma-crystallin D G100D, P07320",0.069 ± 0.11
19,"Gamma-crystallin D G100R, P07320",-0.437 ± 0.073
